In PMC6475063 (Journal of the American Heart Association: Cardiovascular …, 2019):

T1: YFP-tagged human AT1R (angiotensin II type 1 receptor) (human, UniProt P30556 1-359)
T1 sequence (looked up): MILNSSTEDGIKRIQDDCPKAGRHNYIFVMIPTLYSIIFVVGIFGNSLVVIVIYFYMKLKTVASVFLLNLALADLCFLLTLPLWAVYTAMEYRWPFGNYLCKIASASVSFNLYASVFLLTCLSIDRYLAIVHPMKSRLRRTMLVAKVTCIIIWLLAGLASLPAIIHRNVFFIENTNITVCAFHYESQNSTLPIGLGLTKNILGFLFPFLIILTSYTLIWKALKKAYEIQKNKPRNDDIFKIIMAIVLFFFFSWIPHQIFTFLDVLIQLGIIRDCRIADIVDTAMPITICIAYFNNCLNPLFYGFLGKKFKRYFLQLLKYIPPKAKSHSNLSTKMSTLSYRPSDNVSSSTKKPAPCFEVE


Columns and labels:
[1] = molecular target: T1, YFP-tagged human AT1R (angiotensin II …); assay: FRET or BRET
[2] = molecular target: T1, YFP-tagged human AT1R (angiotensin II …); assay: FRET or BRET; remark: listed apart in the source

Row | Binder | EC50 of Ang II for the relative change of BRET ratio [1] [nM] | relative change of BRET ratio, 2 min with Ang II [2] | relative change of BRET ratio, 5 min with Ang II [2] | relative change of BRET ratio, 10 min with Ang II [2] | relative change of BRET ratio, 20 min with Ang II [2] | relative change of BRET ratio, 30 min with Ang II [2]
1 | RLuc-tagged bovine β-arrestin1 (natural protein, UniProt P17870 1-418, looked up) MGDKGTRVFKKASPNGKLTVYLGKRDFVDHIDLVEPVDGVVLVDPEYLKERRVYVTLTCAFRYGREDLDVLGLTFRKDLFVANVQSFPPAPEDKKPLTRLQERLIKKLGEHAYPFTFEIPPNLPCSVTLQPGPEDTGKACGVDYEVKAFCAENLEEKIHKRNSVRLVIRKVQYAPERPGPQPTAETTRQFLMSDKPLHLEASLDKEIYYHGEPISVNVHVTNNTNKTVKKIKISVRQYADICLFNTAQYKCPVAMEEADDTVAPSSTFCKVYTLTPFLANNREKRGLALDGKLKHEDTNLASSTLLREGANREILGIIVSYKVKVKLVVSRGGLLGDLASSDVAVELPFTLMHPKPKEEPPHREVPEHETPVDTNLIELDTNDDDIVFEDFARQRLKGMKDDKEEEEDGTGSPRLNDR | 6.7 | 89.1 % (Ang II for 10 minutes set to 100%) | 107 % (Ang II for 10 minutes set to 100%) | 100 % (Ang II for 10 minutes set to 100%) | 93.5 % (Ang II for 10 minutes set to 100%) | 95.8 % (Ang II for 10 minutes set to 100%)
2 | RLuc-tagged bovine β-arrestin2 (natural protein, UniProt P32120 1-420, looked up) MGEKPGTRVFKKSSPNCKLTVYLGKRDFVDHLDKVDPVDGVVLVDPDYLKDRKVFVTLTCAFRYGREDLDVLGLSFRKDLFIANYQAFPPTPNPPRPPTRLQERLLRKLGQHAHPFFFTIPQNLPCSVTLQPGPEDTGKACGVDFEIRAFCAKSLEEKSHKRNSVRLVIRKVQFAPEKPGPQPSAETTRHFLMSDRSLHLEASLDKELYYHGEPLNVNVHVTNNSTKTVKKIKVSVRQYADICLFSTAQYKCPVAQVEQDDQVSPSSTFCKVYTITPLLSNNREKRGLALDGKLKHEDTNLASSTIVKEGANKEVLGILVSYRVKVKLVVSRGGDVSVELPFVLMHPKPHDHIALPRPQSAATHPPTLLPSAVPETDAPVDTNLIEFETNYATDDDIVFEDFARLRLKGLKDEDYDDQFC | 6.3 | 89.7 % (Ang II for 10 minutes set to 100%) | 102 % (Ang II for 10 minutes set to 100%) | 100 % (Ang II for 10 minutes set to 100%) | 112 % (Ang II for 10 minutes set to 100%) | 93.9 % (Ang II for 10 minutes set to 100%)
